Assay results taken from article PMC12363821 (bioRxiv, 2025).

Assays:
Assay in all cases: flow cytometry on cells
[1] = target: T1, CD155 Mut (high-affinity mutant variant of CD155, rs1058402, G>A; Ala67Thr) (human, UniProt P15151 21-417, Ala67Thr)
T1 sequence: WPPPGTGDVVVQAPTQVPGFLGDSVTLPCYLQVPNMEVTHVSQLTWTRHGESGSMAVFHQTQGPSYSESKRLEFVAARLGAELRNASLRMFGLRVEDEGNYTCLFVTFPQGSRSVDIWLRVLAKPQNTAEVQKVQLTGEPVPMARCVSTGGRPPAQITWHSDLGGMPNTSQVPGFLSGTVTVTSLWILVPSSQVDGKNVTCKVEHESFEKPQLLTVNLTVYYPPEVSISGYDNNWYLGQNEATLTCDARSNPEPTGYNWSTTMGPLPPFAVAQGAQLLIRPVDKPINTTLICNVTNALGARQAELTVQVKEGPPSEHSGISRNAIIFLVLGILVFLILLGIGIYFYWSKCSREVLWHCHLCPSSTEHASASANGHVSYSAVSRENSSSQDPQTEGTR

[2] = target: T2, CD155 WT (wild-type CD155; poliovirus receptor, PVR) (human), P15151; conditions: remark: other sources report otherwise
T2 chain: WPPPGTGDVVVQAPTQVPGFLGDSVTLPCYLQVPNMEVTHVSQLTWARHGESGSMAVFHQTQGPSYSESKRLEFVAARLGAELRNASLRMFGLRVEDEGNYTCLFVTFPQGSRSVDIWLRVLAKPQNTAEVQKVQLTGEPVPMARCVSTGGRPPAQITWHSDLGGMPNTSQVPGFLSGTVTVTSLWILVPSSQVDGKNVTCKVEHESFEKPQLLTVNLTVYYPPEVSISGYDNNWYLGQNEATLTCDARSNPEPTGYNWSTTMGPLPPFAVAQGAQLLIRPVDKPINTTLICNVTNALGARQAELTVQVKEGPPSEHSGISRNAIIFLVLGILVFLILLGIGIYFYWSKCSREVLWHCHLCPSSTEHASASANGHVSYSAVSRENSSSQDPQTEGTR

[3] = target: T1, CD155 Mut (high-affinity mutant variant …); remark: listed apart in the source

B1: Recombinant human CD226-Immunoglobulin chimeric protein (Fc fusion)
chain: EEVLWHTSVPFAENMSLECVYPSMGILTQVEWFKIGTQQDSIAIFSPTHGMVIRKPYAERVYFLNSTMASNNMTLFFRNASEDDVGYYSCSLYTYPQGTWQKVIQVVQSDSFEAAVPSNSHIVSEPGKNVTLTCQPQMTWPVQAVRWEKIQPRQIDLLTYCNLVHGRNFTSKFPRQIVSNCSHGRWSVIVIPDVTVSDSGLYRCYLQASAGENETFVMRLTVAEGKTDNQYTLFVA
modifications: Alexa Fluor 594 (Zenon human IgG labeling kit)
- fold binding (AUC) against the CD155 WT sBC line [1]: 1.29 fold

B2: Recombinant human TIGIT-Immunoglobulin chimeric protein, Q495A1 22-141 (Fc fusion)
chain: MMTGTIETTGNISAEKGGSIILQCHLSSTTAQVTQVNWEQQDQLLAICNADLGWHISPSFKDRVAPGPGLGLTLQSLTVNDTGEYFCIYHTYPDGTYTGRIFLEVLESSVAEHGARFQIP
modifications: here or on the partner: Alexa Fluor 594 (Zenon human IgG labeling kit)
- fold binding (AUC) against parental Mel1 hPSC [2]: 4.25 fold

B3: Recombinant human TIGIT-Immunoglobulin chimeric protein (Fc fusion)
chain: MMTGTIETTGNISAEKGGSIILQCHLSSTTAQVTQVNWEQQDQLLAICNADLGWHISPSFKDRVAPGPGLGLTLQSLTVNDTGEYFCIYHTYPDGTYTGRIFLEVLESSVAEHGARFQIP
modifications: Alexa Fluor 594 (Zenon human IgG labeling kit)
- fold binding (AUC) against parental Mel1 hPSC [3]: 6.47 fold
- fold binding (AUC) against the CD155 WT hPSC line [3]: 1.52 fold
- fold binding (AUC) against the CD155 WT sBC line [1]: 1.37 fold
